Changes are numbered by the printed parent chain. Read-outs that look alike come from different tables or passages of the source.
B1: hum_LT-m58-4 (antibody, human IgG4, V domains shown)
VH: QVQLVQSGAEVKKPGASVKVSCKASGYTFIDHIMNWVRKAPGQGLEWMGRIYPVSGETNYNQKFMGRATFTVDRSTSTVYMELSSLRSEDTAVYYCGRGSYYWNAMDYWGQGTLVTVSS
VL: EIVMTQSPATLSVSPGERATLSCKASQSVDFDGESYMNWYQQKPGQPPRLLIYSASNLESGIPARFSGSGSGTEFTLTISSLQSEDFAVYYCQQSIEDPWTFGQGTKLEIK
notes: humanized from LT-m58
B2: hum_LT-m58-3 (antibody, human IgG4, V domains shown)
VH: B1 VH
VL: DIVMTQSPDSLAVSLGERATINCKASQSVDFDGDSYMNWYQQKPGQPPKLLIYSASNLESGVPDRFSGSGSGTDFTLTISSLQAEDVAVYYCQQSIEDPWTFGQGTKVEIK
notes: humanized from LT-m58
B3: LT-m55 (antibody, human IgG4, V domains shown)
VH: EVQLQQSGAELVKPGASVKLSCKASGYTFATYYMYWVKQRPGQGLEWIGEINPTNGGTIFNEKFKTKATLTVDKSSSTAYMQLSSLTSEDSAVYYCARGNWPYWSFDVWGAGTSVTVSS
VL: DIVLTQSPASLAVSLGQRATISCKASQSVDFDGDNYMNWYQQKPGQPPKLLIYAASNLDSGIPARFSASGSGTDFTLNIHPVEEEDAATYYCQQSIEDPWTFGGGTKLEIK
B4: LT-m85 (antibody, human IgG4, V domains shown)
VH: EVQLQQSGAELVKPGASVKMSCKASGYTFTSYNVHWVKQTPGQGLEWIGAVYPGNGDTSYNQKFKGKATLTADKSSNTAYMQLSSLTSEDSAVYYCARGSYYYTSSYFDHWGQGTTLTVSS
VL: B3 VL with N35S, A54T, D59E, S67T, A68G, I96Y, W100F, G104S
B5: LT-m58 (antibody, human IgG4, V domains shown)
VH: QVQLQQSGAEMASPGASVTLSCKASGYTFIDHIMNWVKKRPGQGLEWIGRIYPVSGETNYNQKFMGKATFSVDRSSSTVYMVLNSLTSEDPAVYYCGRGSYYWNAMDYWGQGTTLTVSS
VL: B3 VL with L4M, N35S, A54S, D59E, A68G
B6: hum_LT-m37-3 (antibody, human IgG4, V domains shown)
VH: QVQLVQSGAEVKKPGASVKVSCKASGYSFTGYFINWVRQAPGQGLEWIGRIYPYNVNTFYNQNFKGRATMTADKSTSTAYMELSSLRSEDTAVYYCGRGTHYYGSSGAMDYWGQGTLVTVSS
VL: EIVLTQSPATLSVSPGERATLSCKASQNVGTAVAWYQQKPGQSPRLLIYSASNRYTGIPARFSGSGSGTEFTLTISSLQSEDFAVYFCQQYSSYPYTFGGGTKVEIK
notes: humanized from LT-m37
B7: hum_LT-m37-2 (antibody, human IgG4, V domains shown)
VH: B6 VH with M70L
VL: B6 VL
notes: humanized from LT-m37

How the values were obtained:
hFc-human LIGHT [1] = biological target: T1, hFc-human LIGHT (human); test: competition ELISA, LTβR-His coated, hFc-huLIGHT added
T1 construct: also called hFc-huLIGHT

His-human LIGHT [2] = biological target: T2, His-human LIGHT (human); test: ELISA, His-huLIGHT coated
T2 construct: also called His-huLIGHT; free LIGHT
T2 chain: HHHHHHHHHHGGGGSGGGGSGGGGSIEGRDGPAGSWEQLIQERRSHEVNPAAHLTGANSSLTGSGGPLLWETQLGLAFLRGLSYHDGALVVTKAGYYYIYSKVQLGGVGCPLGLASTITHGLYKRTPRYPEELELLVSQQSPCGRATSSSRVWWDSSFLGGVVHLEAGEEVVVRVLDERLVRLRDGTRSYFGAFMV

His-mouse LIGHT = biological target: T3, His-mouse LIGHT (mouse); test: ELISA, His-musLIGHT coated
T3 construct: also called His-musLIGHT
T3 chain: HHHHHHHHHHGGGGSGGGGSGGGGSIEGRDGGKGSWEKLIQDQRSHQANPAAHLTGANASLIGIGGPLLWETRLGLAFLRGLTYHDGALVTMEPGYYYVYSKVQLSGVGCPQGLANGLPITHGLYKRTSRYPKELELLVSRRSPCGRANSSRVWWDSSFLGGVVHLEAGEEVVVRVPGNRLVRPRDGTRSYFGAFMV

His-human LIGHT [3] = biological target: T2, His-human LIGHT; test: cell-based or functional assay
His-human LIGHT [4] = biological target: T2, His-human LIGHT; test: ELISA, His-huLIGHT coated
[5] = biological target: T4, His-cynomolgus monkey LIGHT (cynomolgus monkey); test: SPR, Biacore 8K, antibody on CM5 chip
T4 construct: also called His-cynoLIGHT
T4 chain: T2 chain with P32H, A33G, E47Q, V48N, S83D, V91A, T92N, S149N, A167V

His-human LIGHT [6] = biological target: T2, His-human LIGHT; test: SPR, Biacore 8K, antibody on CM5 chip
His-human LIGHT [7] = biological target: T2, His-human LIGHT; test: ELISA, His-huLIGHT coated
[8] = biological target: LIGHT on the surface of HEK293-LIGHT stable cells (human, UniProt O43557 1-240); test: cell-based or functional assay
His-human LIGHT [9] = biological target: T2, His-human LIGHT; test: cell-based or functional assay
[10] = biological target: T4, His-cynomolgus monkey LIGHT; test: ELISA, His-cynoLIGHT coated
His-human LIGHT [11] = biological target: T2, His-human LIGHT; test: cell-based or functional assay
hFc-human LIGHT [12] = biological target: T1, hFc-human LIGHT; test: competition ELISA, LTβR-His coated, hFc-huLIGHT added; remark: listed apart in the source

Binder | IC50 (hFc-human LIGHT [1]) [pM] | EC50 (His-human LIGHT [2]) [pM] | binding result (His-mouse LIGHT) | IC50, HVEM NF-κB luciferase reporter (293T-HVEM-NF-κB-Luc), free LIGHT (His-human LIGHT [3]) [µg/mL] | EC50 (His-human LIGHT [4]) [µg/mL] | Kd [5] [pM] | koff [5] [s⁻¹] | kon [5] [M⁻¹ s⁻¹] | Kd (His-human LIGHT [6]) [pM] | koff (His-human LIGHT [6]) [s⁻¹] | kon (His-human LIGHT [6]) [M⁻¹ s⁻¹] | EC50 (His-human LIGHT [7]) [µg/mL] | IC50, LTβR NF-κB luciferase reporter, HEK293-LIGHT cells [8] [µg/mL] | IC50, LTβR NF-κB luciferase reporter, free LIGHT (His-human LIGHT [9]) [µg/mL] | EC50 [10] [pM] | IC50, HVEM NF-κB luciferase reporter, free LIGHT (His-human LIGHT [11]) [µg/mL] | IC50 (hFc-human LIGHT [12]) [pM]
B1 | 208 | 6.17 | – | – | – | – | – | – | – | – | – | – | – | – | – | – | –
B2 | 169 | 11.2 | – | – | – | – | – | – | – | – | – | – | – | – | – | – | –
B3 | – | – | no binding | 0.264 | 0.0332 | 61.3 | 5.86e-05 | 956000 | 68.5 | 6.01e-05 | 877000 | – | – | – | – | – | –
B4 | – | – | no binding | 0.124 | 0.0121 | 60.1 | 6.72e-05 | 1.12e+06 | 67.4 | 5.28e-05 | 783000 | – | – | – | – | – | –
B5 | – | – | no binding | 0.318 | 0.0243 | 34.7 | 1.24e-05 | 357000 | 69.6 | 2.67e-05 | 385000 | – | – | – | – | – | –
B6 | – | – | – | – | – | – | – | – | – | – | – | 0.0875 | 1.79 | 0.399 | 55.4 | 0.0747 | –
B7 | – | – | – | – | – | – | – | – | – | – | – | 0.081 | 3.54 | 0.293 | 51.7 | 0.0918 | 59.8

Source: EP4596580A1 (Staidson (Beijing) Biopharmaceuticals Co., Ltd., dated 2025)
